Measurements: the DeepSol protein solubility set

assay: soluble on expression in E. coli; label from the status in PepcDB or PDB records

Sequence	soluble on expression in E. coli
MWYQKTLTLSAKSRGFHLVTDEILNQLADMPRVNIGLLHLLLQHTSASLTLNENCDPTVRHDMECFFLRTVPDNGNYEHDYEGADDMPSHIKSSMLGTSLVLPVHKGRIQTGTWQGIWLGEHRIHGGSRRIIATLQGELEHHHHHH	not soluble
MIFVLGGTSDSLLISDWLTETKRPFILSVATDYGETLAKQHAEKVFCGRLAKEAMLAKWQLEQIKLVIDATHPFATIVSETAMEACKEAGIPYIRFERTSEQTDNTYLVDDINEACKVAAKLGQRIFLTTGSKNLPEFVAGLKQQHIIARILPVSDVIRSAEELGLVADQIIGMKGPFTKEANRTQLEMTQADVLITKESGKQGGFQEKLTAAAELNIPVIVIRRKKLNYPIEINHLTELPEILTQLEV	not soluble
MSLENLQTNFSLVQGSTKKLNGMGDDGSPPAKKMITDIHVNGKTINKVPTVKKEHLDDYGEAPVETDGEHVKRTCTSVPETLHLNPSLKHTLAQFHLSSQSSLGGPAAFSARHSQESMSPTVFLPLPSPQVLPGPLLIPSDSSTELTQTVLEGESISCFQVGGEKRLCLPQVLNSVLREFTLQQINTVCDELYIYCSRCTSDQLHILKVLGILPFNAPSCGLITLTDAQRLCNALLRPRTFPQNGSVLPAKSSLAQLKETGSAFEVEHECLGKCQGLFAPQFYVQPDAPCIQCLECCGMFAPQTFVMHSHRSPDKRTCHWGFESAKWHCYLHVNQKYLGTPEEKKLKIILEEMKEKFSMREGHHHHHH	not soluble
METRLLVLKYDILNREAICLNRETHELLHANLVESVQPQIGQFLAVENLKIVQIDGVCFISPECGTIVIEPPAPEDCVILPKEKTDVVMFKSWIGFSSDPSHLTYDRNIGYADWYGPVNCSQFKAKNTKVAFFKYLIAVNDLDYKNTGECLMKAVQLVGVIDNRDAAEVRLKMMEFERKRIADIQRTTKQTRLIETVAYPILPSAHQPSSNHSYTGRSSCDSLRPQPVPAARKLSEQPQTVQNQAPYREQINQQRSVTNSIYGEFSGVGRTDQPLETANSRGSTEYYSGRSSSSSDQVIRNEPQLPNPAPILPESMGMVTYENGIMQIVYLRSVQKAAIHYWSKHQITTSLGSVFNCSFKPIPVQATTHWAPFEITAINNVNNEKNEVKTVGKECFALFKVDLSRPEGKFSKWTTIGGNPIFSCEIVGYVMLAHSVLGPQQNQLSILNVAQNYYNRKVAENICCFCRFVRRQVPRMMVDSHWISEDEEVEVFIWELVEIVGASELYRKRQEQLEIGNLGDTADNVKRHNDDIEMQKKRAQQEHFAQQQRPAGSSNSYQTENAQQHSMSNNMQYYHSQAPPVSSRSSISLGETAEFKNKLERTNDMMESLCDAIKKFLDNRQLKETLRGYNPRRLQALEEKLKECSEHLENN	not soluble
MAHHHHHHMWRLRSPGPCAGHVARPAAFTACRVVVGSSGATSADAASFRTTSAGAALVVAHRRKSYHFFMNLDDPDATRRRIEEDLDRLASDEKKDTTAYLHSLLNLALSHYQRGDFISARDMADYTHQKALVHNSKSSLIYFTATTCAHCAEALAKEYEAHLQRKDEQSHVSATLTPEPSVVFSARRAIKKLRADAERYRGIAHRVYHRPDMAFMRGSGGGGSGRWRSSARHAEGRDTRHTWADDSSNNGVDEDYIPHMYGPRWQDRRKRPEHAEMKHYYKHQCGTSPSSRGKTQWNVPK	not soluble
MSLFYANMKEFELIKLVERLFGDEDVITPAGKHDAAYVKIGNRLIVLTCDTVNEKSDFPPYMLPEEMGWMAIAVTLSDVAACGARPLYFLSSISLKSIEFFEDILLGIKRCADRFGVKVVGGDIDFSEITTIAGFAIGEARRHITRRGAKVGEGVFITDLPGKAQLCLEMLERGAKREELPYAEKLYTPVPRIEEGMRIARYASAMTDVSDSLAVSLHQISQSSNVKIVLDNIVLSHLSPAENALELFLYGGGDFELVYTAKSSDDGIRIGRVERGKGVFAEIDGKTFEVEFRGYSHFEGHHHHHH	soluble
MGSDKIHHHHHHMNNSASEQKWKWWPLLPLYPYGRRRTIFRELVPNQIWSFEQLQGIYYVAVPVRLLVIRVKNELMIINPLPPTSELLKEIDLLQKKIGPVKTIVLPTASGLEHKIGLPALARAFPNAKIWLCPGQWSFPFQLPFDWLGIPSNRTNILLADGFPHGDDCEWISLGPIDIGLARFQEISCFHKPTKSLLVTDALVGIEATPPELFNLDPTPLLFHSREKGSEELIDSPIARRKGWLRLVLFASYLKPEKLEIPKIKEILENSFKPKMRNKRSHFGIYPFAWQEGWDLSAKKLVGEKTPLIQIAPVIERLVFPRGKKAFISWLNKIESLKGISFLISAHYSGKVRFTTNEIRALKVKIDNSNWEKTQGDFKFLSWFDQKLLNFGIVPKNPLKKFSD	not soluble
